The source of these data is article PMC3590443 (Nature structural & molecular biology, 2012).

Positions count from the first letter of the chain named. Names may count otherwise.

First the molecules themselves.
B1: PlxnA2_(1-4) (mouse PlxnA2 residues 35-703) (domain or fragment, UniProt P70207 35-703, looked up)
chain: MPQYSTFHSENRDWTFNHLTVHRRTGAVYVGAINRVYKLTGNLTIQVAHKTGPEEDNKACYPPLIVQPCSEVLTLTNNVNKLLIIDYSENRLLACGSLYQGVCKLLRLDDLFILVEPSHKKEHYLSSVNKTGTMYGVIVRSEGEDGKLFIGTAVDGKQDYFPTLSSRKLPRDPESSAMLDYELHSDFVSSLIKIPSDTLALVSHFDIFYIYGFASGGFVYFLTVQPETPDGMAINSAGDLFYTSRIVRLCKDDPKFHSYVSLPFGCTRAGVEYRLLQAAYLAKPGEALAQAFNISSDEDVLFAIFSKGQKQYHHPPDDSALCAFPIRAINLQIKERLQSCYHGEGNLELNWLLGKDVQCTKAPVPIDDNFCGLDINQPLGGSTPVEGLTLYTTSRDRLTSVASYVYNGYSVVFVGTKSGKLKKIRADGPPHGGVQYEMVSVFKDGSPILRDMAFSINQLYLYVMSERQVTRVPVESCEQYTTCGECLSSGDPHCGWCALHNMCSRRDKCQRAWEANRFAASISQCMSLEVHPNSISVSDHSRLLSLVVNDAPNLSEGIACAFGNLTEVEGQVSGSQVICISPGPKDVPVIPLDQDWFGLELQLRSKETGKIFVSTEFKFYNCSAHQLCLSCVNSAFRCHWCKYRNLCTHDPTTCSFQEGRINVSEDCPQ
B2: Sema3AS-P (mouse Sema3A residues 21-568, furin site mutated R551A and R555A) (domain or fragment, UniProt O08665 21-568, looked up)
chain: NYANGKNNVPRLKLSYKEMLESNNVITFNGLANSSSYHTFLLDEERSRLYVGAKDHIFSFNLVNIKDFQKIVWPVSYTRRDECKWAGKDILKECANFIKVLEAYNQTHLYACGTGAFHPICTYIEVGHHPEDNIFKLQDSHFENGRGKSPYDPKLLTASLLIDGELYSGTAADFMGRDFAIFRTLGHHHPIRTEQHDSRWLNDPRFISAHLIPESDNPEDDKVYFFFRENAIDGEHSGKATHARIGQICKNDFGGHRSLVNKWTTFLKARLICSVPGPNGIDTHFDELQDVFLMNSKDPKNPIVYGVFTTSSNIFKGSAVCMYSMSDVRRVFLGPYAHRDGPNYQWVPYQGRVPYPRPGTCPSKTFGGFDSTKDLPDDVITFARSHPAMYNPVFPINNRPIMIKTDVNYQFTQIVVDRVDAEDGQYDVMFIGTDVGTVLKVVSVPKETWHDLEEILLEEMTVFREPTTISAMELSTKQQQLYIGSTAGVAQLPLHRCDIYGKACAECCLARDPYCAWDGSSCSRYFPTAKARTRAQDIRNGDPLTHCS
B3: Sema3AS-P L353N P355S (domain or fragment, mouse, UniProt O08665 21-568, looked up)
chain: B2 chain with L333N, P335S
B4: Nrp1_(1-4) (mouse Nrp1 residues 22-586) (domain or fragment, UniProt P97333 22-586, looked up)
chain: FRSDKCGGTIKIENPGYLTSPGYPHSYHPSEKCEWLIQAPEPYQRIMINFNPHFDLEDRDCKYDYVEVIDGENEGGRLWGKFCGKIAPSPVVSSGPFLFIKFVSDYETHGAGFSIRYEIFKRGPECSQNYTAPTGVIKSPGFPEKYPNSLECTYIIFAPKMSEIILEFESFDLEQDSNPPGGMFCRYDRLEIWDGFPEVGPHIGRYCGQKTPGRIRSSSGVLSMVFYTDSAIAKEGFSANYSVLQSSISEDFKCMEALGMESGEIHSDQITASSQYGTNWSVERSRLNYPENGWTPGEDSYKEWIQVDLGLLRFVTAVGTQGAISKETKKKYYVKTYRVDISSNGEDWISLKEGNKAIIFQGNTNPTDVVLGVFSKPLITRFVRIKPVSWETGISMRFEVYGCKITDYPCSGMLGMVSGLISDSQITASNQADRNWMPENIRLVTSRTGWALPPSPHPYTNEWLQVDLGDEKIVRGVIIQGGKHRENKVFMRKFKIAYSNNGSDWKTIMDDSKRKAKSFEGNNNYDTPELRTFSPLSTRFIRIYPERATHSGLGLRMELLGCEVE

What all share (test): SPR
(In SPR one partner is held on a chip, and binding of the other changes the refractive index at the surface.)

For assay [1], the target named is T1, Sema3AS-F with Nrp1_(1-4) (combination in the experiment with EDTA) (mouse, UniProt O08665 21-555; P97333 22-586).
T1 sequence (looked up) 1: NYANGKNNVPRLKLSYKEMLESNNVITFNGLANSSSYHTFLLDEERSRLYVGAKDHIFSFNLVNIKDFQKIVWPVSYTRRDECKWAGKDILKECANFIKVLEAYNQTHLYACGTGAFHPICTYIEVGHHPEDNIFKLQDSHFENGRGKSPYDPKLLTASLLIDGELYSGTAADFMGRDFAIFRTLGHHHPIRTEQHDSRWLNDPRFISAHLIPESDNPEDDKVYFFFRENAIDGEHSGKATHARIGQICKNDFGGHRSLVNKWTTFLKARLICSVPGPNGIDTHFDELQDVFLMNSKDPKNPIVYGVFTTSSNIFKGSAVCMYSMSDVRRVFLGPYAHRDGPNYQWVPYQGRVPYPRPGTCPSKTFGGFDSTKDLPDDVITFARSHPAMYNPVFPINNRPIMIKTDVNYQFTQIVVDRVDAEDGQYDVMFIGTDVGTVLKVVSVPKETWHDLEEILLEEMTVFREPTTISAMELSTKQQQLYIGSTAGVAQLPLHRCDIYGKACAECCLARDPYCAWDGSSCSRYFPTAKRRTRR
T1 sequence (looked up) 2: B4 chain

A further assay concerns the target T2, Nrp1_(1-4) P73A H74S (mouse, UniProt P97333 22-586, P73A | H74S).
T2 sequence (looked up): B4 chain with P52A, H53S

Assay [2] concerns the target B4.
The target in the next assay is T3, PlxnA2_(1-4) F275N (mouse, UniProt P70207 35-703, F275N).
T3 sequence (looked up): B1 chain with F241N

Regarding B1, the binding result in assay [1] is listed as “binds”.

Turning to B2, the binding result in the assay with Nrp1_(1-4) P73A H74S is recorded as “binds”.

On to B3, for which the binding result in assay [2] is reported as “binds”.

B4: in the assay with PlxnA2_(1-4) F275N, the binding result is recorded as “binds”.
